Test results taken from patent US20110212084A1 (AstraZeneca / MedImmune, published 2011).

How the values were obtained:
[1] = target: T1, cynomolgus IgE (recombinant chimaeric D12 variable region / cynomolgus IgE constant region) (cynomolgus monkey (constant region)); experiment: HTRF receptor-ligand competition, scFv titrated; Eu-cryptate cynomolgus IgE binding to human FcεRI-Fc; geomean
T1 construct: also called cyno IgE; cynomolgus IgE (in house HEK-EBNA derived)
Method: (§1) Purified scFv were tested in a receptor-ligand binding HTRF® (Homogeneous Time-Resolved Fluorescence) assay format for inhibition of either human IgE (U266-derived [Ikeyama et. al. 1986. Molecular Immunology 23 (2); p159-167]) or cyno IgE (recombinant, see materials and methods) labelled with europium cryptate (CIS bio International 62EUSPEA), binding to human FcεR1-Fc (in house NS0 cell produced). Example scFv potency data is included in Table 5a
as §1, with “produced).” for “produced). Example scFv potency data is included in Table 5a”

[2] = target: T2, human IgEλ (U266 derived) (human, UniProt P01854 1-546); experiment: HTRF receptor-ligand competition, scFv titrated; Eu-cryptate human IgE (U266) binding to human FcεRI-Fc; geomean
T2 construct: mature; full-length IgE purified from U266 cells (Ikeyama et al. 1986); labelled with europium cryptate in the HTRF assays; also called human IgE (U266-derived)
Method: as §1
as §1, with “produced).” for “produced). Example scFv potency data is included in Table 5a”

[3] = target: T3, human IgEλ (U266 derived) (human, UniProt P01854 1-546); experiment: as above
Method: as §1
as §1, with “produced).” for “produced). Example scFv potency data is included in Table 5a”

[4] = target: T4, human IgE (source not stated for the assay) (human, UniProt P01854-1 1-428); experiment: SPR, BIAcore 2000; IgE amine-coupled to CM5 chip, IgG as analyte, bivalent analyte model; geomean
T4 construct: also called purified human IgE; IgE (Calbiochem or U266-derived)
Method: The binding affinity of purified IgG samples of a representative number of clones to human and cynomolgus IgE was determined by surface plasmon resonance using BIAcore 2000 biosensor (BIAcore AB) essentially as described by Karlsson et al 1991; Journal of Immunological Methods 145 (1-2) 229-240. In brief, purified human or cynomolgus IgE was covalently coupled to the surface of a CM5 sensor chip (BIAcore) using standard amine coupling reagents according to the manufacturer's instructions to provide a surface density of 100 RU. IgG samples prepared in HBS-EP buffer (BIAcore (AB), at a range of concentrations, between 250 nM and 15.6 nM were passed over the sensor chip surface. The surface was regenerated using 10 mM Glycine, pH 1.75 between each injection of antibody. The resulting sensorgrams were evaluated using BIA evaluation 3.1 software and fitted to a bivalent analyte model, to provide relative binding data.

[5] = target: T3, human IgEλ (U266 derived); experiment: cell-based or functional assay

T1 sequence (heavy, as listed by the source limits assumed, chain 1 of 2): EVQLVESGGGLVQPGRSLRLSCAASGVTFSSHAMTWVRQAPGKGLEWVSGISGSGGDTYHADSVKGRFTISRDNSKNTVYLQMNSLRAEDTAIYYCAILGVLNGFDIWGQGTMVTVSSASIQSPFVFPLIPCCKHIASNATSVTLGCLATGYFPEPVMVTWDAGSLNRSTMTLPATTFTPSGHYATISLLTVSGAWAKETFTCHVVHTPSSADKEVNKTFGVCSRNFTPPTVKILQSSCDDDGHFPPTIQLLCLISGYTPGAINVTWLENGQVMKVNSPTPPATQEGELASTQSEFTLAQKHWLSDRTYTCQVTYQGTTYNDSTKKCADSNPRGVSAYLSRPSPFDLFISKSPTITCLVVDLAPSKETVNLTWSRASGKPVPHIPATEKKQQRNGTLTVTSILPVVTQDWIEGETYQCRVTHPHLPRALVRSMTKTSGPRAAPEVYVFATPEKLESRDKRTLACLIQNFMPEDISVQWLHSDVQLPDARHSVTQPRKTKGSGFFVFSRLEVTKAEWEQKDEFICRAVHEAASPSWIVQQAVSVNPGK
T1 sequence (light, as listed by the source limits assumed, chain 2 of 2): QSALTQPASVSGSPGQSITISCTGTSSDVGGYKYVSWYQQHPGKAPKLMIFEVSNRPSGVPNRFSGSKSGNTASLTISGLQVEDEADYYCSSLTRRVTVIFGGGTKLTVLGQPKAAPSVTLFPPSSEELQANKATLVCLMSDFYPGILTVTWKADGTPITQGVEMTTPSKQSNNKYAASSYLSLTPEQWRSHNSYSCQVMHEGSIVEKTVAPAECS
T4 sequence (P01854 other isoform, or with tags, fused parts or gaps): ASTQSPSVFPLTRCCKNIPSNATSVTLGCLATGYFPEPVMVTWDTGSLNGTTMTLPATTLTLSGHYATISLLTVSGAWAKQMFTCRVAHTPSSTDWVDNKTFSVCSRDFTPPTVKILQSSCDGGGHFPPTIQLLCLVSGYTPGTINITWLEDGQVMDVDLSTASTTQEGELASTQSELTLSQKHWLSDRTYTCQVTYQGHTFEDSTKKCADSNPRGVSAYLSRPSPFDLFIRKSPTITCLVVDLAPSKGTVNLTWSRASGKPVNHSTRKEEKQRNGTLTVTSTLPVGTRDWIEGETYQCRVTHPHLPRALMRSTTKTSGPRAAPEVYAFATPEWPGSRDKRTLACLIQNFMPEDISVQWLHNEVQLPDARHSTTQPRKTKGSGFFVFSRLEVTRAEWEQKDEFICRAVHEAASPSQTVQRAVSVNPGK

Binder | IC50 [1] [nM] | IC50 [2] [nM] | IC50 [3] [nM] | Kd [4] [nM] | RBL-ER51 calcium signalling IC50 (nM) Geomean, human IgE 25 ng/ml [5] [nM]
Antibody 9 (scFv) (scFv, V domains shown, purified scFv) VH: EVQLLESGGGLVQPGGSLRLSCAASGFTFSSYAMSWVRQAPGKGLEWVSAISGGSGGRTYYADSVKGRFTISRDNSKNTLYLQMNSLRAEDTAVYYCARHIAVAGTRGFDYWGRGTLVTVSS VL: SFVLSQPPSVSVSPGQTASITCSGDKLGDTYASWYRQRSGQSPVLVIYQDDKRPSGIPERFSGSNSGNTATLTISGTHTMDEADYYCLAWDTRTSGAVFGGGTKLTVL | 138 | 6 |  |  | 
Antibody 15 (scFv) (scFv, V domains shown, purified scFv) VH: EVQLLESGGGLVQPGGSLRLSCAAPGFTFSSYAMSWVRQAPGKGLEWVSAISGGSGGRTYYADSVKGRFTISRDNSKNTLYLQMNSLRAEDTAVYYCARHIAVAGTRGFDYWGRGTLVTVSS VL: SYVLTQPPSVSVSPGQTASITCSGDKLGDTYASWYRQRSGQSPVLVIYQDDRRPSGIPERFSGSNSGNTATLTISGTHTMDEADYYCLAWDTRTSGAVFGGGTKLTVL | 135 | 4 |  |  | 
Antibody 24 (scFv) (scFv, V domains shown, purified scFv) VH: EVQLLESGGGLVQPGGSLRLSCAAPGFTFSSYAMSWVRQAPGKGLEWVSAISGGSGGRTYYADSVKGRFTISRDNSKNTLYLQMNSLRAEDTAVYYCARHIAVAGTRGFDYWGRGTLVTVPS VL: SFVLTQPPSVSVSPGQTASITCSGDKLGDTYASWYRQRSGQSPVLVIYQDDKRPSGIPERFSGSNSGNTATLTISGTHTMDEADYYCLAWDTRTSGAVFGGGTKLTVL | 196 |  | 4 |  | 
Antibody 25 (scFv) (scFv, V domains shown, purified scFv) VH: EVQLLESGGGLVQPGGSLRLSCAAPGFTFSSYAMSWVRQAPGKGLEWVSAISGGSGGRTYYADSVKGRFTISRDNSKNTLYLQMNSLRAEDTAVYYCARHIAVAGTRGFDYWGRGTLVTISS VL: SFVLTQPPSVSVSPGQTASITCSGDKLGDTYASWYRQRSGQSPVLVIYQDDKRPSGIPERFSGSNSGNTATLTISGTHTMDEADYYCLAWDTRTSGAVFGGGTKLTVL | 188 |  | 6 |  | 
Antibody 33 (scFv) (scFv, V domains shown, purified scFv) VH: EVQLLESGGGLVQPGGSLSLSCAAPGFTFSSYAMSWVRQAPGKGLEWVSAISGGSGGRTYYADSVKGRFTISKDNSKNTLYLQMNSLRAEDTAVYYCARHIAVAGTRGFDYWGRGTLVTVSS VL: SYVLTQPPSVSVSPGQTASITCSGDKLGDTYASWYRQRSGLSPALVIYQDDKRPSGIPERFSGSNSGNTATLTISGTHTMDEADYYCLAWDTRTSGAVFGGGTKLTVL | 533 | 14 |  |  | 
Antibody 34 (scFv) (scFv, V domains shown, purified scFv) VH: EVQLLESGGGLVQPGGSLRLSCAAPGFTLSSYAMSWVRQAPGKGLEWVSAISGGSGGRTYYADSVKGRFTISRDNSKNTLYLQMNSLRAEDTAVYYCARHIAVAGTRGFDYWGRGTLVTVSS VL: SYVLTQPPSVSASPGQTASITCSGDKLGDTYASWYRQRSGQSPVLVIYQDDKRPPGIPERFSGSNSGNTATLTIRGTHTMDEADYYCLAWDTRTSGAVFGGGTKLSVL | 500 | 3 |  |  | 
Antibody 10 (IgG) (antibody, V domains shown) VH: not shown VL: SYVLTQPPSVSVSPGQTASITCSGDKLGDKYASWYRQRSGQSPVLVIYQDDKRPSGIPERFSGSNSGNTATLTISGTHTMDEADYYCLAWDTRTSGAVFGGGTKLTVL |  |  |  | 1.3 | 1.5
Antibody 2 (scFv) (scFv, V domains shown, purified scFv) VH: EVQLLESGGGLVQPGGSLRLSCAASGFTFSSYAMSWVRQAPGKGLEWVSAISGSGGRTYYADSVKGRFTISRDNSKNTLYLQMNSLRAEDTAVYYCARHIAVAGTRGFDYWGRGTLVTVSS VL: SYVLTQPPSVSVSPGQTASITCSGDKLGDTYASWYRQRSGQSPVLVIYQDDRRPSGIPERFSGSNSGNTATLTISGTHTMDEADYYCLAWDTRTSGAVFGGGTKLTVL | 398 |  | 7 |  | 
Antibody 3 (scFv) (scFv, V domains shown, purified scFv) VH: EVQLLESGGGLVQPGGSLRLSCAASGFTFSSYAMSWVRQAPGKGLEWVSAISGSGGRTYYADSVKGRFTISRDNSKNTLYLQMNSLRAEDTAVYYCARHIAVAGTRGFDYWGRGTLVTVSS VL: SYVLTQPPSVSVSPGQTASITCSGDKLGDTYASWYRQRSGQSPVLVIYQDDKRPSGIPERFSGSNSGDTATLTISGTHTMDEADYYCLAWDTRTSGAVFGGGTKLTVL | 237 |  | 5 |  | 
Antibody 4 (scFv) (scFv, V domains shown, purified scFv) VH: EVQLLESGGGLVQPGGSLRLSCAASGFTFSSYAMSWVRQAPGKGLEWVSAISGSGGRTYYADSVKGRFTISRDNSKNTLYLQMNSLRAEDTAVYYCARHIAVAGTRGFDYWGRGTPVTVSS VL: SFVLTQPPSVSVSPGQTASITCSGDKLGDTYASWYRQRSGQSPVLVIYQDDKRPSGIPERFSGSNSGNTATLTISGTHTMDEADYYCLAWDTRTSGAVFGGGTKLTVL | 600 |  | 5.4 |  | 
Antibody 5 (scFv) (scFv, V domains shown, purified scFv) VH: EVQLLESGGGLVQPGGSLRLSCAASGFTFSSYAMSWVRQAPGKGLEWVSAISGSGGRTYYADSVKGRFTISRDNSKNTLYLQMNSLRAEDTAVYYCARHIAVAGTRGFDYWGRGTLVTVSS VL: SYVLTQPPSVSVSPGQTASITCSGDKLGDTYASWYRQRSGQSPVLVIYQDDRRPSGIPERFSGSNSGNTATLTISGTHTMDEADYYCLAWDTRTSGAVFGGGTKLTAL | 356 |  | 6 |  | 
Antibody 7 (scFv) (scFv, V domains shown, purified scFv) VH: EVQLLESGGGLVQPGGSLRLSCAASGFTFSSYAMSWVRQAPGKGLEWVSAISGGGGRTYYADSVKGRFTISRDNSKNTLYLQMNSLRAEDTAVYYCARHIAVAGTRGFDYWGRGTLVTVSS VL: SYVLTQPPSVSASPGQTASITCSGDKLGDTYASWYRQRSGQSPVLVIYQDDKRPSGIPERFSGSNSGNTATLTISGTHTMDEADYYCLAWDTRTSGAVFGGGTKLTVL | 569 |  | 8 |  | 
Antibody 12 (scFv) (scFv, V domains shown, purified scFv) VH: EVQLLESGGGLVQPGGSLRLSCAASGFTFSSYAMSWVRQAPGKGLEWVSAISGSGGRTYYADSVKGRFTISRDNSKNTLYLQMNSLRAEDTAVYYCARHIAVAGTRGFDYWGRGTLVTVSS VL: SFMLSQPPSVSVSPGQTASITCSGDKLGDTYASWYRQRSGQSPVLVIYQDDKRPSGIPERFSGSNSGNTATLTISGTHTMDEADYYCLAWDTRTSGAVFGGGTKLTVL | 473 | 8 |  |  | 
Antibody 26 (scFv) (scFv, V domains shown, purified scFv) VH: EVQLLESGGGLVQPGGSLRLSCAASGLTFSGYAMSWVRQAPGKGLEWVSAISGSGGRTYYADSVKGRFTISRDNSKNMLYLQMNSLRAEDTAVYYCARHIAVAGTRGFDYWGRGTLVTVSS VL: SFVLTQPPSVSVSPGQTASITCSGDKLGDTYASWYRQRSGQSPVLVIYQDDKRPSGIPERFSGSNSGNTATLTIGGTHTMDEADYYCLAWDTRTSGAVFGGGTKLTVL | 359 |  | 8 |  | 
Antibody 27 (scFv) (scFv, V domains shown, purified scFv) VH: EVQLLESGGGLVQPGGSLRLSCAASGFTFSSYAMSWVRQAPGKGLEWVSAISGSGGRTYYADSVKGRFTISRDNSKNTLYLQMNSLRAEDTAVYYCARSTYFASTRGFDYWGRGTLVTVSS VL: SYVLTQPPSVSVSPGQTASITCSGDKLGDTYASWYRQRSGQSPVLVIYQDDKRPSGIPERFSGSNSGNTATLTISGTHTMDEADYYCLAWDTRTSGAVFGGGTKLTVL | 379 |  | 2 |  | 
Antibody 36 (scFv) (scFv, V domains shown, purified scFv) VH: EVQLLESGGGLVQPGGSLRLSCAASGFTFSSYAMSWVRQAPGKGLEWVSAISGSGGRTYYADSVKGRFTISRDNSKNTLYLQMNSLRAEDTAVYYCARHIAVAGTRGFDYWGRGTLVTVSS VL: SFMLSQPPSVSVSPGQTASITCSGDKLGDTYASWYRQRSGQSPVLVIYQDDKRPSGIPERFSGSNSGNTATLTISGTHTMDEADYYCLAWDTRTSGAVFGGGTKLTVL | 407 | 8 |  |  | 
Antibody 10 (scFv) (scFv, V domains shown, purified scFv) VH: not shown VL: SYVLTQPPSVSVSPGQTASITCSGDKLGDKYASWYRQRSGQSPVLVIYQDDKRPSGIPERFSGSNSGNTATLTISGTHTMDEADYYCLAWDTRTSGAVFGGGTKLTVL |  | 10 |  |  | 
